B1: Twister Ribozyme (parent)
chain: AACACUGCCAAUGCCGGUCCCAAGCCCGGAUAAAAGUGGAGGGGGCGG

Variants of: B1
Test: self-cleavage, relative activity (ratio to wild type); higher = more cleavage; co-transcriptional

| Variant | self-cleavage |
| --- | --- |
| AACACUGCCAAUGCCGGUCCCAAGCCCGGAUAAAAGUGGAGGGCGCAG [G44C G47A] | 0.371 |
| AACACUGCCAAUGCCGGUCCCAAGCCCGGAUAAAAGUGGAGGGCGCCG [G44C G47C] | 0.353 |
| AACACUGCCAAUGCCGGUCCCAAGCCCGGAUAAAAGUGGAGGGGUCAG [G45U G47A] | 0.771 |
| AACACUGCCAAUGCCGGUCCCAAGCCCGGAUAAAAGUGGAGGGGGCUC [G47U G48C] | 1.36 |
| AACACUGCCAAUGCCGGUCCCAAGCCCGGAUAAAAGUGGAGGGGACGC [G45A G48C] | 1.02 |
| AACACUGCCAAUGCCGGUCCCAAGCCCGGAUAAAAGUGGAGGGGCCCG [G45C G47C] | 0.427 |
| AACACUGCCAAUGCCGGUCCCAAGCCCGGAUAAAAGUGGAGGGGCCUG [G45C G47U] | 0.177 |
| AACACUGCCAAUGCCGGUCCCAAGCCCGGAUAAAAGUGGAGGCGGUGG [G43C C46U] | 0.214 |
| AACACUGCCAAUGCCGGUCCCAAGCCCGGAUAAAAGUGGAGGGAGAGG [G44A C46A] | 0.878 |
| AACACUGCCAAUGCCGGUCCCAAGCCCGGAUAAAAGUGGAGGGAGGGG [G44A C46G] | 0.895 |
| AACACUGCCAAUGCCGGUCCCAAGCCCGGAUAAAAGUGGAGGGAGUGG [G44A C46U] | 0.988 |
| AACACUGCCAAUGCCGGUCCCAAGCCCGGAUAAAAGUGGAGGGGGCAU [G47A G48U] | 1.47 |
| AACACUGCCAAUGCCGGUCCCAAGCCCGGAUAAAAGUGGAUGGGGCGA [G41U G48A] | 0.401 |
| AACACUGCCAAUGCCGGUCCCAAGCCCGGAUAAAAGUGGAGCGUGCGG [G42C G44U] | 0.162 |
| AACACUGCCAAUGCCGGUCCCAAGCCCGGAUAAAAGUGGAGUGGGCAG [G42U G47A] | 0.242 |
| AACACUGCCAAUGCCGGUCCCAAGCCCGGAUAAAAGUGGAGGGAGCAG [G44A G47A] | 0.867 |
| AACACUGCCAAUGCCGGUCCCAAGCCCGGAUAAAAGUGGAGGGUGCGA [G44U G48A] | 0.717 |
| AACACUGCCAAUGCCGGUCCCAAGCCCGGAUAAAAGUGGAGGGGUUGG [G45U C46U] | 0.669 |
| AACACUGCCAAUGCCGGUCCCAAGCCCGGAUAAAAGUGGAGGGGUGGG [G45U C46G] | 0.52 |
| AACACUGCCAAUGCCGGUCCCAAGCCCGGAUAAAAGUGGAGAGGGGGG [G42A C46G] | 0.232 |
| AACACUGCCAAUGCCGGUCCCAAGCCCGGAUAAAAGUGGAGCGGGUGG [G42C C46U] | 0.463 |
| AACACUGCCAAUGCCGGUCCCAAGCCCGGAUAAAAGUGGAGCGGGGGG [G42C C46G] | 0.465 |
| AACACUGCCAAUGCCGGUCCCAAGCCCGGAUAAAAGUGGAGGGGGUGC [C46U G48C] | 1.1 |
| AACACUGCCAAUGCCGGUCCCAAGCCCGGAUAAAAGUGGAGGCGGCGC [G43C G48C] | 0.219 |
| AACACUGCCAAUGCCGGUCCCAAGCCCGGAUAAAAGUGGAGGCGGCGA [G43C G48A] | 0.198 |
| AACACUGCCAAUGCCGGUCCCAAGCCCGGAUAAAAGUGGAGUAGGCGG [G42U G43A] | 0.129 |

| Variant | self-cleavage |
| --- | --- |
| AACACUGCCAAUGCCGGUCCCAAGCCCGGAUAAAAGUGGAGGGGGGCG [C46G G47C] | 0.981 |
| AACACUGCCAAUGCCGGUCCCAAGCCCGGAUAAAAGUGGAGGAGCCGG [G43A G45C] | 0.434 |
| AACACUGCCAAUGCCGGUCCCAAGCCCGGAUAAAAGUGGAGCGGUCGG [G42C G45U] | 0.164 |
| AACACUGCCAAUGCCGGUCCCAAGCCCGGAUAAAAGUGGAGGGUCCGG [G44U G45C] | 0.609 |
| AACACUGCCAAUGCCGGUCCCAAGCCCGGAUAAAAGUGGAGGAGGAGG [G43A C46A] | 0.334 |
| AACACUGCCAAUGCCGGUCCCAAGCCCGGAUAAAAGUGGAGGGCUCGG [G44C G45U] | 0.483 |
| AACACUGCCAAUGCCGGUCCCAAGCCCGGAUAAAAGUGGAGGGCCCGG [G44C G45C] | 0.54 |
| AACACUGCCAAUGCCGGUCCCAAGCCCGGAUAAAAGUGGAGGGGGGGC [C46G G48C] | 1.55 |
| AACACUGCCAAUGCCGGUCCCAAGCCCGGAUAAAAGUGGAGGGGGGGA [C46G G48A] | 1 |
| AACACUGCCAAUGCCGGUCCCAAGCCCGGAUAAAAGUGGAGGGGGGGU [C46G G48U] | 1.52 |
| AACACUGCCAAUGCCGGUCCCAAGCCCGGAUAAAAGUGGAGGGCGCGA [G44C G48A] | 0.289 |
| AACACUGCCAAUGCCGGUCCCAAGCCCGGAUAAAAGUGGAGGCGACGG [G43C G45A] | 0.294 |
| AACACUGCCAAUGCCGGUCCCAAGCCCGGAUAAAAGUGGAGGGGGAAG [C46A G47A] | 1.03 |
| AACACUGCCAAUGCCGGUCCCAAGCCCGGAUAAAAGUGGAGGGGGAUG [C46A G47U] | 0.832 |
| AACACUGCCAAUGCCGGUCCCAAGCCCGGAUAAAAGUGGAGGGGGACG [C46A G47C] | 0.952 |
| AACACUGCCAAUGCCGGUCCCAAGCCCGGAUAAAAGUGGAGGGGCCGU [G45C G48U] | 0.577 |
| AACACUGCCAAUGCCGGUCCCAAGCCCGGAUAAAAGUGGAGGGGCCGC [G45C G48C] | 0.89 |
| AACACUGCCAAUGCCGGUCCCAAGCCCGGAUAAAAGUGGAGGGGCCGA [G45C G48A] | 0.628 |
| AACACUGCCAAUGCCGGUCCCAAGCCCGGAUAAAAGUGGAGGCUGCGG [G43C G44U] | 0.455 |
| AACACUGCCAAUGCCGGUCCCAAGCCCGGAUAAAAGUGGAGCGGGCGC [G42C G48C] | 0.606 |
| AACACUGCCAAUGCCGGUCCCAAGCCCGGAUAAAAGUGGAGCGGGCGA [G42C G48A] | 0.516 |
| AACACUGCCAAUGCCGGUCCCAAGCCCGGAUAAAAGUGGAGUGGGCGC [G42U G48C] | 0.571 |
| AACACUGCCAAUGCCGGUCCCAAGCCCGGAUAAAAGUGGAGUGAGCGG [G42U G44A] | 0.524 |
| AACACUGCCAAUGCCGGUCCCAAGCCCGGAUAAAAGUGGAUGGGGCCG [G41U G47C] | 0.209 |
| AACACUGCCAAUGCCGGUCCCAAGCCCGGAUAAAAGUGGAUGGGGCUG [G41U G47U] | 0.3 |
| AACACUGCCAAUGCCGGUCCCAAGCCCGGAUAAAAGUGGAGGUGCCGG [G43U G45C] | 0.271 |

| Variant | self-cleavage |
| --- | --- |
| AACACUGCCAAUGCCGGUCCCAAGCCCGGAUAAAAGUGGAGGAGGCAG [G43A G47A] | 0.237 |
| AACACUGCCAAUGCCGGUCCCAAGCCCGGAUAAAAGUGGAGGAGGCCG [G43A G47C] | 0.208 |
| AACACUGCCAAUGCCGGUCCCAAGCCCGGAUAAAAGUGGAGGGGGUUG [C46U G47U] | 1.02 |
| AACACUGCCAAUGCCGGUCCCAAGCCCGGAUAAAAGUGGAGGGGGAGC [C46A G48C] | 0.995 |
| AACACUGCCAAUGCCGGUCCCAAGCCCGGAUAAAAGUGGAGGGGGCCU [G47C G48U] | 0.4 |
| AACACUGCCAAUGCCGGUCCCAAGCCCGGAUAAAAGUGGAGGGGGCCC [G47C G48C] | 0.799 |
| AACACUGCCAAUGCCGGUCCCAAGCCCGGAUAAAAGUGGAGGGCGUGG [G44C C46U] | 0.732 |
| AACACUGCCAAUGCCGGUCCCAAGCCCGGAUAAAAGUGGAGGGUGCCG [G44U G47C] | 0.523 |
| AACACUGCCAAUGCCGGUCCCAAGCCCGGAUAAAAGUGGAGGGUGCAG [G44U G47A] | 0.758 |
| AACACUGCCAAUGCCGGUCCCAAGCCCGGAUAAAAGUGGAGAAGGCGG [G42A G43A] | 0.131 |
| AACACUGCCAAUGCCGGUCCCAAGCCCGGAUAAAAGUGGAGAUGGCGG [G42A G43U] | 0.134 |
| AACACUGCCAAUGCCGGUCCCAAGCCCGGAUAAAAGUGGAGGCGGCAG [G43C G47A] | 0.138 |
| AACACUGCCAAUGCCGGUCCCAAGCCCGGAUAAAAGUGGAGGCGGCUG [G43C G47U] | 0.13 |
| AACACUGCCAAUGCCGGUCCCAAGCCCGGAUAAAAGUGGAGGCGGCCG [G43C G47C] | 0.159 |
| AACACUGCCAAUGCCGGUCCCAAGCCCGGAUAAAAGUGGAGGGAUCGG [G44A G45U] | 1.11 |
| AACACUGCCAAUGCCGGUCCCAAGCCCGGAUAAAAGUGGAGGGGACAG [G45A G47A] | 0.71 |
| AACACUGCCAAUGCCGGUCCCAAGCCCGGAUAAAAGUGGAGAGGGCGC [G42A G48C] | 0.624 |
| AACACUGCCAAUGCCGGUCCCAAGCCCGGAUAAAAGUGGAGGGAGCGU [G44A G48U] | 1.08 |
| AACACUGCCAAUGCCGGUCCCAAGCCCGGAUAAAAGUGGAGGGAGCGC [G44A G48C] | 1.11 |
| AACACUGCCAAUGCCGGUCCCAAGCCCGGAUAAAAGUGGAGAGGACGG [G42A G45A] | 0.422 |
| AACACUGCCAAUGCCGGUCCCAAGCCCGGAUAAAAGUGGAUGGGCCGG [G41U G45C] | 0.177 |
| AACACUGCCAAUGCCGGUCCCAAGCCCGGAUAAAAGUGGAGGGGCUGG [G45C C46U] | 0.544 |
| AACACUGCCAAUGCCGGUCCCAAGCCCGGAUAAAAGUGGAGUGGGAGG [G42U C46A] | 0.162 |
| AACACUGCCAAUGCCGGUCCCAAGCCCGGAUAAAAGUGGAGCAGGCGG [G42C G43A] | 0.139 |
| AACACUGCCAAUGCCGGUCCCAAGCCCGGAUAAAAGUGGAGAGGGCAG [G42A G47A] | 0.282 |

From the RNAGym collection of RNA variant scans (doi:10.7554/elife.80360)
